# PMC6338448 (Cell reports, 2018)
# Like-named read-outs stand apart in the source and are kept apart here.
# T1: recombinant soluble (ΔGPI) Fc-tagged RECK (sRECK-Fc) (human, UniProt O95980 23-942)
# T1 sequence (looked up): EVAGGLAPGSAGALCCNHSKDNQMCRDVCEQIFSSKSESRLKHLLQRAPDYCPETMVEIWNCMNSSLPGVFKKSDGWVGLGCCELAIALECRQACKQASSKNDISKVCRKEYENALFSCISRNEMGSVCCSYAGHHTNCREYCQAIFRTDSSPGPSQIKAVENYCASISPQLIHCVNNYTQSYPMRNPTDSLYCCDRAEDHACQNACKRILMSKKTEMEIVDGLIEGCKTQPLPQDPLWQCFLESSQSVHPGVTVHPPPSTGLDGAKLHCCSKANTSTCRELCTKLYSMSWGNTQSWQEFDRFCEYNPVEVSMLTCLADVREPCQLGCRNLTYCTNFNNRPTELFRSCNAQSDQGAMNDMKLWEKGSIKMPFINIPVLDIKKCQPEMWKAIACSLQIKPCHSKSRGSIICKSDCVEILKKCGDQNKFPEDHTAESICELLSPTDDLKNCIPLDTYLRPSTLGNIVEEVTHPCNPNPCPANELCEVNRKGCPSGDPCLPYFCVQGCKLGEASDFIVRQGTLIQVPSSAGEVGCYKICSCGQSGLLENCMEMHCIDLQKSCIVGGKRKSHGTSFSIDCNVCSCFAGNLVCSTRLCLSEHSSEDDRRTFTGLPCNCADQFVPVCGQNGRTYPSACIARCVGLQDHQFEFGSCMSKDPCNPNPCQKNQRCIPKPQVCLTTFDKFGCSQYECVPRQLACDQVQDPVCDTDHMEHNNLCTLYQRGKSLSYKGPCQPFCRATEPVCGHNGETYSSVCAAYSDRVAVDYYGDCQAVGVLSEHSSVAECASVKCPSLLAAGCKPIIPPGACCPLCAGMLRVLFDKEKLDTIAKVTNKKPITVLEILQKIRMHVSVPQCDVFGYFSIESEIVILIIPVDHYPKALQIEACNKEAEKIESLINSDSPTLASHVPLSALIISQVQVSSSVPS
# T2: C-terminally His-tagged soluble RECK (sRECK-His) (human, UniProt O95980 23-942)
# T2 sequence (looked up): T1 sequence (looked up)
# B1: recombinant soluble GPR124 ECD (sGPR124), C-terminally His-tagged (domain or fragment)
# chain: APGCPLSIRSCKCSGERPKGLSGGVPGPARRRVVCSGGDLPEPPEPGLLPNGTVTLLLSNNKITGLRNGSFLGLSLLEKLDLRNNIISTVQPGAFLGLGELKRLDLSNNRIGCLTSETFQGLPRLLRLNISGNIFSSLQPGVFDELPALKVVDLGTEFLTCDCHLRWLLPWAQNRSLQLSEHTLCAYPSALHAQALGSLQEAQLCCEGALELHTHHLIPSLRQVVFQGDRLPFQCSASYLGNDTRIRWYHNRAPVEGDEQAGILLAESLIHDCTFITSELTLSHIGVWASGEWECTVSMAQGNASKKVEIVVLETSASYCPAERVANNRGDFRWPRTLAGITAYQSCLQYPFTSVPLGGGAPGTRASRRCDRAGRWEPGDYSHCLYTNDITRVLYTFVLMPINASNALTLAHQLRVYTAEAASFSDMMDVVYVAQMIQKFLGYVDQIKELVEVMVDMASNLMLVDEHLLWLAQREDKACSRIVGALERIGGAALSPHAQHISVNARNVALEAYLIKPHSYVGLTCTAFQRREGGVPGTRPGSPGQNPPPEPEPPADQQLRFRCTTGRPNVSLSSFHIKNSVALASIQLPPSLFSSLPAALAPPVPPDCTLQLLVFRNGRLFHSHSNTSRPGAAGPGKRRGVATPVIFAGTSGCGVGNLTEPVAVSLRHWAEGAEPVAAWWSQEGPGEAGGWTSEGCQLRSSQPNVSALHCQHLGNVAVLMELDGGGS
# B2: WNT7A (co-expressed with sRECK-His in Expi293F cells) (ligand, human, UniProt O00755 32-349, looked up)
# chain: LGASIICNKIPGLAPRQRAICQSRPDAIIVIGEGSQMGLDECQFQFRNGRWNCSALGERTVFGKELKVGSREAAFTYAIIAAGVAHAITAACTQGNLSDCGCDKEKQGQYHRDEGWKWGGCSADIRYGIGFAKVFVDAREIKQNARTLMNLHNNEAGRKILEENMKLECKCHGVSGSCTTKTCWTTLPQFRELGYVLKDKYNEAVHVEPVRASRNKRPTFLKIKKPLSYRKPMDTDLVYIEKSPNYCEEDPVTGSVGTQGRACNKTAPQASGCDLMCCGRGYNTHQYARVWQCNCKFHWCCYVKCNTCSERTEMYTCK
# B3: sGPR124 ΔHRM (Δaa 349 - 426) (domain or fragment, human)
# chain: APGCPLSIRSCKCSGERPKGLSGGVPGPARRRVVCSGGDLPEPPEPGLLPNGTVTLLLSNNKITGLRNGSFLGLSLLEKLDLRNNIISTVQPGAFLGLGELKRLDLSNNRIGCLTSETFQGLPRLLRLNISGNIFSSLQPGVFDELPALKVVDLGTEFLTCDCHLRWLLPWAQNRSLQLSEHTLCAYPSALHAQALGSLQEAQLCCEGALELHTHHLIPSLRQVVFQGDRLPFQCSASYLGNDTRIRWYHNRAPVEGDEQAGILLAESLIHDCTFITSELTLSHIGVWASGEWECTVSMAQGNASKKVEIVVLETLYTFVLMPINASNALTLAHQLRVYTAEAASFSDMMDVVYVAQMIQKFLGYVDQIKELVEVMVDMASNLMLVDEHLLWLAQREDKACSRIVGALERIGGAALSPHAQHISVNARNVALEAYLIKPHSYVGLTCTAFQRREGGVPGTRPGSPGQNPPPEPEPPADQQLRFRCTTGRPNVSLSSFHIKNSVALASIQLPPSLFSSLPAALAPPVPPDCTLQLLVFRNGRLFHSHSNTSRPGAAGPGKRRGVATPVIFAGTSGCGVGNLTEPVAVSLRHWAEGAEPVAAWWSQEGPGEAGGWTSEGCQLRSSQPNVSALHCQHLGNVAVLMELDGGGS
# Columns and labels:
# [1] = target: T1, recombinant soluble (ΔGPI) Fc-tagged …; test: pull-down
# [2] = target: T2, C-terminally His-tagged soluble RECK …; test: cross-linking
# [3] = target: T1, recombinant soluble (ΔGPI) Fc-tagged …; test: pull-down; remark: listed apart in the source
binder,measurement,setting,value
B1,binding result,[1],binds
B2,stoichiometry N,[2],1
B3,binding result,[3],binds
